# Test results from the supplement of paper PMC7125110.
# ± gives the standard error. For some of these results: Variants at the floor of the assay were thinned out.
# B1: glmS ribozyme (parent)
# chain: AUAAAAGCGCCAGAACUACAGAAAUGUAGUUGACGAGGAGGAGGUUUAUCGAAUUUUCGGCGGAUGCCUCCAAA
# Tests used:
# Conditions in all cases: with glucosamine-6-phosphate
# [1] = variants of: B1; assay: kcat; higher = faster cleavage; RNA array
# In short: (§1)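 E. coli RNA polymerase transcribed barcoded ribozyme variants in situ on sequenced MiSeq chips, which were tracked via a hybridised Cy3 probe at 37 °C. Tiles were imaged over ~14 h after glucosamine-6-phosphate (40 μM to 10 mM) in HEPES/KCl/Mg(OAc)2 buffer was flowed in. Normalised per-tile medians were fit to one- or two-exponential decays for kobs, and kcat and KM came from weighted Michaelis–Menten fits.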
# [2] = variants of: B1; assay: self-cleavage kobs at 40 uM GlcN6P; higher = faster cleavage; RNA array
# In short: as §1
# [3] = variants of: B1; assay: self-cleavage kobs at 640 uM GlcN6P; higher = faster cleavage; RNA array
# In short: as §1
# [4] = variants of: B1; assay: self-cleavage kobs at 2500 uM GlcN6P; higher = faster cleavage; RNA array
# In short: as §1
# [5] = variants of: B1; assay: self-cleavage kobs at 160 uM GlcN6P; higher = faster cleavage; RNA array
# In short: as §1
# [6] = variants of: B1; assay: self-cleavage kobs at 10000 uM GlcN6P; higher = faster cleavage; RNA array
# In short: as §1
# [7] = variants of: B1; assay: KM; higher = weaker cofactor use; RNA array
# In short: as §1
Variant,kcat [1],self-cleavage kobs at 40 uM GlcN6P [2],self-cleavage kobs at 640 uM GlcN6P [3],self-cleavage kobs at 2500 uM GlcN6P [4],self-cleavage kobs at 160 uM GlcN6P [5],self-cleavage kobs at 10000 uM GlcN6P [6],KM [7]
AUAAAAGCGCCAGAACUACAGAAAUGUAGUUGACGAGUAGGAGGUUUAUCGAAUUUUCGGCGGUUGCCUCCAAA [G38U A64U],< 1e-05 s⁻¹,< 1e-05 s⁻¹,< 1e-05 s⁻¹,< 1e-05 s⁻¹,–,–,–
AUAAAAGCGCCAUAACUACAGAAAUGUAGUUGACGAGGAGGAGGUUUAUCGAAUUUUCGGCGUAUGCCUCCAAA [G13U G63U],< 1e-05 s⁻¹,< 1e-05 s⁻¹,–,–,–,–,–
AUAAAAGCGCCAGAACUACAGAAAUGUAGUUGACGACGAGGAGGUUUAUCGAAUUUUCGGCGGAUACCUCCAAA [G37C G66A],3.43e-05 ± 7.8e-06 s⁻¹,< 1e-05 s⁻¹,–,3.43e-05 ± 1.5e-05 s⁻¹,–,–,–
AUAAAAGCGCCAGAACUACAGAAAUGUAGUUGACGUGGAGGAGGAUUAUGGAAUUUUCGGCGGAUGCCUCCAAA [A36U U45A C50G],< 1e-05 s⁻¹,–,< 1e-05 s⁻¹,< 1e-05 s⁻¹,–,–,–
AUAAAAGCGCCAGAACUACAGAAAUGUAGUUGACGAGGAGGAGGUUUAUCGAAUUUUCGGCGGAUGCCUAGAAA [C70A C71G],5.62e-05 ± 4.3e-06 s⁻¹,–,5.81e-05 ± 7.8e-06 s⁻¹,5.08e-05 ± 7.8e-06 s⁻¹,3.29e-05 ± 1.1e-05 s⁻¹,5.37e-05 ± 7.8e-06 s⁻¹,–
AUAAAAGCGCCAUAACUACAGAAAUGUAGUUGACGAGGAGGAGGUUUAUCGAGUUUUCGGCGGAUGCGUCCAAA [G13U A53G C68G],4.16e-05 ± 3.1e-06 s⁻¹,–,–,4.16e-05 ± 1.5e-05 s⁻¹,–,–,–
AUAAAAGCGCCAGGACUACAGAAAUGUAGUUGACGAAGAGGAGGUUUAUCGAAAUUUCGGCGGAUGCCUCCAAA [A14G G37A U54A],0.00578 ± 0.0027 s⁻¹,7.89e-05 ± 1.6e-05 s⁻¹,0.000505 ± 0.00013 s⁻¹,0.00178 ± 0.00043 s⁻¹,–,0.00406 ± 0.00062 s⁻¹,–
AUAAAAGCGCCAGAACUACAGAAAUGUAGUUGACGAGGAGGAAGAUUAUCGAAUUUUCGGCGGAUGCCUCCAAA [G43A U45A],5.51e-05 ± 7.6e-07 s⁻¹,–,–,2.63e-05 ± 1.1e-05 s⁻¹,–,4.33e-05 ± 1.3e-05 s⁻¹,2720 ± 100 µM
AUAAAAGCGCCAGAACUACAGAAAUGUAGUUGACGAGGAGGAGGUUUAUCGAAUUUUCGGUGGAUGCCUUCAAA [C61U C70U],3.98e-05 ± 5.3e-06 s⁻¹,–,–,3.31e-05 ± 1e-05 s⁻¹,–,3.47e-05 ± 6e-06 s⁻¹,–
AUAAAAGCGCCAGAACUACAGAAAUGUAGUUGACGAGGAGGAGGUUUAUCGAAUUUUCGGCGGAUGCCUGUAAA [C70G C71U],0.000112 ± 1.4e-05 s⁻¹,–,6.12e-05 ± 4.8e-06 s⁻¹,0.000102 ± 8.1e-06 s⁻¹,5.07e-05 ± 7.8e-06 s⁻¹,0.00011 ± 8.6e-06 s⁻¹,401 ± 170 µM
AUAAAAGCGCCAGAACUACAGAAAUGUAGUUGACGAGGAGGAGGUUUAUCGGAUUUUCGGCGGAUGGCUCCAAA [A52G C67G],0.000104 ± 6.8e-06 s⁻¹,6.74e-05 ± 9e-06 s⁻¹,0.000107 ± 1e-05 s⁻¹,0.000123 ± 1.6e-05 s⁻¹,7.15e-05 ± 2.3e-05 s⁻¹,9.62e-05 ± 8.6e-06 s⁻¹,22.4 ± 10 µM
AUAAAAGCGCCAGAACUACAGAAAUGUAGUUAACGAGGAGGAGGUUUAUCGAAUUUUCGGCGGAUGCCUGCAAA [G32A C70G],0.000111 ± 1.6e-05 s⁻¹,–,9.43e-05 ± 1.5e-05 s⁻¹,6.07e-05 ± 2.4e-05 s⁻¹,2.97e-05 ± 1.1e-05 s⁻¹,0.00011 ± 1.3e-05 s⁻¹,–
AUAAAAGCGCCAGAACUACAGAAAUGUAGAUGACGAGGAGGAGGUUUAUCGAAUUUUAGGCGGAUGCCUCCAAA [U30A C58A],0.000164 ± 5e-05 s⁻¹,–,–,9.07e-05 ± 2.9e-05 s⁻¹,–,0.000114 ± 2.4e-05 s⁻¹,–
AUAAAAGCGCCAGAAUUACAGAAAUGUAGUUGACGAGGAGGAGGUUAAUCGAAUUUUCGGCGGAUGCCUCCAAA [C16U U47A],0.0299 ± 0.0051 s⁻¹,0.0004 ± 7.1e-05 s⁻¹,0.00515 ± 0.00087 s⁻¹,0.0118 ± 0.003 s⁻¹,–,0.0259 ± 0.0068 s⁻¹,3060 ± 660 µM
AUAAAAGCGCCAGAACUACAGAAAUGUAGUAGACGAGGAGGAGGUUUAUCGAUUUUUCGGCGGAUGCCUCCAAA [U31A A53U],0.02 ± 0.007 s⁻¹,0.000232 ± 3.6e-05 s⁻¹,0.00278 ± 0.00064 s⁻¹,0.00529 ± 0.0016 s⁻¹,0.000911 ± 0.00027 s⁻¹,0.0181 ± 0.0034 s⁻¹,3760 ± 1700 µM
AUAAAAGCGCCAGCACUACAGAAAUGUAGUUGACGAGGAGGAGGUUUAUCGAAUUUUCGGCGGGUGCCUCCAAA [A14C A64G],0.00265 ± 0.00066 s⁻¹,0.000141 ± 3e-05 s⁻¹,0.000733 ± 0.00024 s⁻¹,0.00221 ± 0.00047 s⁻¹,0.000434 ± 0.0002 s⁻¹,0.00267 ± 0.00068 s⁻¹,884 ± 370 µM
AUAAAAGCGCCAGAACUACAGAAAUGUAGUUGACGAGGCGGAGGUUUAUCGAAUUUUCGGCGGGUGCCUCCAAA [A39C A64G],0.00631 ± 0.0019 s⁻¹,0.000169 ± 1.3e-05 s⁻¹,0.0014 ± 0.00018 s⁻¹,0.00323 ± 0.00045 s⁻¹,0.000342 ± 6.2e-05 s⁻¹,0.00604 ± 0.00065 s⁻¹,1870 ± 760 µM
